Data on six molecules can be found in paper PMC4068969, “SacPox from the thermoacidophilic crenarchaeon Sulfolobus acidocaldarius is a proficient lactonase” (BMC Research Notes, 2014).

In data set [1] the target is T1, SacPox (Sulfolobus acidocaldarius, UniProt Q4J6Z8).
T1 construct: gene pte; recombinant in E. coli BL21(DE3)-pGro7/GroEL with CoCl2
In words: phenyl acetate hydrolysis, […] nm. Format: biochemical. The following applies: 50 mM HEPES pH 8, 150 mM NaCl, 0.2 mM CoCl2, 25°C; cobalt cofactor.

Data set [2] has as its target T1, SacPox. Format: biochemical. The following applies: 2.5 mM Bicine pH 8.3, 150 mM NaCl, 0.2 mM CoCl2, 0.5% DMSO, 25°C; cobalt cofactor.
Data set [3] deals with T1, SacPox. In words: p-nitrophenolate release, […] nm. Format: biochemical. As to conditions: 50 mM HEPES pH 8, 150 mM NaCl, 0.2 mM CoCl2, 25°C, cobalt cofactor; for Km: no SDS.
In a further data set the test system is CCCC1CCC(=O)O1. The data set is described as follows: purified protein. The following applies: 2.5 mM Bicine pH 8.3, 150 mM NaCl, 0.2 mM CoCl2, 0.5% DMSO, 25°C, cobalt cofactor. The data set is classed as biochemical, Sulfolobus acidocaldarius.
The subject of a further data set is CCCCC1CCCC(=O)O1. The data set is described as follows: purified protein. The data set is classed as biochemical, Sulfolobus acidocaldarius. As to conditions: 2.5 mM Bicine pH 8.3, 150 mM NaCl, 0.2 mM CoCl2, 0.5% DMSO, 25°C, cobalt cofactor.
Data set [4] concerns CCCCCC(=O)CC(=O)N[C@H]1CCOC1=O. The data set is described as follows: purified protein. The data set is classed as biochemical, Sulfolobus acidocaldarius. As to conditions: 2.5 mM Bicine pH 8.3, 150 mM NaCl, 0.2 mM CoCl2, 0.5% DMSO, 25°C, cobalt cofactor.
For a further data set, the system named is CCCCCC1CCC(=O)O1. In words: purified protein. The following applies: 2.5 mM Bicine pH 8.3, 150 mM NaCl, 0.2 mM CoCl2, 0.5% DMSO, 25°C, cobalt cofactor. The data set is classed as biochemical, Sulfolobus acidocaldarius.
The subject of the next data set is CCCCCCC1CCCC(=O)O1. In words: purified protein. The data set is classed as biochemical, Sulfolobus acidocaldarius. As to conditions: 2.5 mM Bicine pH 8.3, 150 mM NaCl, 0.2 mM CoCl2, 0.5% DMSO, 25°C, cobalt cofactor.
For data set [5], the system named is CCCCCCCC(=O)CC(=O)N[C@H]1CCOC1=O. The data set is described as follows: purified protein. The data set is classed as biochemical, Sulfolobus acidocaldarius. As to conditions: 2.5 mM Bicine pH 8.3, 150 mM NaCl, 0.2 mM CoCl2, 0.5% DMSO, 25°C, cobalt cofactor.
The test system of the next data set is CCCCCCCC(=O)NC1CCOC1=O. The data set is described as follows: purified protein. The data set is classed as biochemical, Sulfolobus acidocaldarius. The following applies: 2.5 mM Bicine pH 8.3, 150 mM NaCl, 0.2 mM CoCl2, 0.5% DMSO, 25°C, cobalt cofactor.
A further data set concerns CCCCCCCC1CCCC(=O)O1. In words: purified protein. Format: biochemical, Sulfolobus acidocaldarius. The following applies: 2.5 mM Bicine pH 8.3, 150 mM NaCl, 0.2 mM CoCl2, 0.5% DMSO, 25°C, cobalt cofactor.
A further data set deals with CCCCCCCCC1CCC(=O)O1. The data set is described as follows: purified protein. The data set is classed as biochemical, Sulfolobus acidocaldarius. As to conditions: 2.5 mM Bicine pH 8.3, 150 mM NaCl, 0.2 mM CoCl2, 0.5% DMSO, 25°C, cobalt cofactor.

Like-named read-outs stand apart in the source and are kept apart here.

Consider `CC(=O)Oc1ccccc1` [Phenyl-acetate], for which, on SacPox [1], the “K M (μM)” value is listed as 8 181 ± 1750 μM.
Consider `O=C1CCCCCO1` [ϵ caprolactone], for which the “K M (μM)” value on SacPox [2] is listed as 1 031 ± 83 μM.
As for `CCOP(=O)(OCC)Oc1ccc([N+](=O)[O-])cc1` [Paraoxon], the Km at SacPox [3] worked out at 434 ± 54 µM.
Still for that read-out and setting: as for `COP(=O)(OC)Oc1ccc([N+](=O)[O-])cc1` [Methyl Paraoxon], the figure is 278 ± 40 µM.
As for “SacPox (Sulfolobus acidocaldarius DSM 639)”, the Km in the data set on CCCC1CCC(=O)O1 came to 388 ± 62 µM; in the data set with CCCCC1CCCC(=O)O1, 348 ± 53 µM; in [4], 836 ± 178 µM; with CCCCCC1CCC(=O)O1 it was 109 ± 19 µM; in the data set on CCCCCCC1CCCC(=O)O1, 168 ± 37 µM; in data set [5] it was 213 ± 33 µM. In addition, the Km in the data set with CCCCCCCC(=O)NC1CCOC1=O was 178 ± 26 µM; in the data set with CCCCCCCC1CCCC(=O)O1, 185 ± 27 µM; in the data set with CCCCCCCCC1CCC(=O)O1, 242 ± 60 µM. For the same molecule, the kcat worked out at 10.2 ± 0.5 s⁻¹ in the data set on CCCC1CCC(=O)O1; 4.55 ± 0.21 s⁻¹ in the data set with CCCCC1CCCC(=O)O1; 0.89 ± 0.07 s⁻¹ in [4]; 2.64 ± 0.07 s⁻¹ in the data set with CCCCCC1CCC(=O)O1; 1.05 ± 0.05 s⁻¹ in the data set on CCCCCCC1CCCC(=O)O1; 1.03 ± 0.04 s⁻¹ in [5]. In addition, the kcat came out at 0.94 ± 0.02 s⁻¹ in the data set with CCCCCCCC(=O)NC1CCOC1=O, 3.34 ± 0.07 s⁻¹ in the data set on CCCCCCCC1CCCC(=O)O1 and 0.53 ± 0.03 s⁻¹ in the data set with CCCCCCCCC1CCC(=O)O1. Moreover, the kcat/Km with CCCC1CCC(=O)O1 stood at 26400 ± 4400 M⁻¹ s⁻¹; in the data set with CCCCC1CCCC(=O)O1 it was 13100 ± 2100 M⁻¹ s⁻¹; in data set [4], 1070 ± 250 M⁻¹ s⁻¹; in the data set with CCCCCC1CCC(=O)O1, 24400 ± 4400 M⁻¹ s⁻¹; in the data set on CCCCCCC1CCCC(=O)O1, 6220 ± 1400 M⁻¹ s⁻¹; in data set [5], 4880 ± 770 M⁻¹ s⁻¹. Moreover, the kcat/Km in the data set on CCCCCCCC(=O)NC1CCOC1=O stood at 5280 ± 770 M⁻¹ s⁻¹; in the data set on CCCCCCCC1CCCC(=O)O1, 18100 ± 2700 M⁻¹ s⁻¹; in the data set with CCCCCCCCC1CCC(=O)O1, 2210 ± 570 M⁻¹ s⁻¹.
Consider `CC(=O)Oc1ccc([N+](=O)[O-])cc1` [pNP-acetate], for which the “K M (μM)” value on SacPox [3] is reported as 2 107 ± 313 μM.

What is called Km is the substrate concentration at which the rate is half of its maximum. What is called kcat is the maximal rate divided by the concentration of active sites. As a reminder, the kcat/Km is the turnover number divided by the Michaelis constant.
